# Patent publication US11236354B2, “Glyphosate-n-acetyltransferase (GLYAT) sequences and methods of use” (PIONEER HI-BRED INTERNATIONAL, INC., priority 2013, dated 2022)
# Assays:
# O=C(O)CNCP(=O)(O)O [1] = assay: cells, lysate or membranes named; conditions: 37.0 °C
# N[C@@H](CC(=O)O)C(=O)O = assay: cells, lysate or membranes named; conditions: 37.0 °C
# O=C(O)CNCP(=O)(O)O [2] = assay: Substrate saturation kinetic analysis of purified GLYAT; format: biochemical; conditions: other: SEQ ID NO:26, pH 7.0, non-varied substrate saturating, 37.0 °C
# Description: E. coli cultures in LB or 2×YT were grown overnight at 37° C. to saturation. The cells were used as a 2% inoculum into fresh media. When OD reached 0.6, IPTG was added to 0.2 mM and growth was continued for at least 6 hours. Cells were harvested by centrifugation and stored at −80° C. Cells were lysed with BPER (Pierce) containing 1 mM dithiothreitol, 0.2 mg/ml lysozyme, 2 mg/ml protease inhibitor cocktail (Sigma bacterial cell cocktail, P8465) and endonuclease. Lysate supernatants were passed through a column of NHS-activated Agarose (Thermo, #26197) derivatized with coenzyme A. Columns were washed with 25 mM Hepes, pH 7, containing progressively higher concentrations of KCl, then eluted with 25 mM Hepes, 100 mM KCl, 10% ethylene glycol and 1 mM acetyl CoA. Purity as evaluated by polyacrylamide gel electrophoresis was deemed consistently high enough to be assumed to be 100%. Protein concentration was determined with the Bradford assay using a large-scale lot of produced GLYAT protein as standard.
# Kinetic parameters for various substrates were obtained using a range of seven substrate concentrations plus a blank containing none of the varied substrate. The non-varied substrate was present at a saturating concentration. Six-microliter aliquots of 50-fold concentrated stock solutions of the varied substrate were placed in a 96-well assay plate (Greiner BioOne UV-Star). Reactions were started with the addition of 294 ul of 25 mM Hepes, pH 7.0, 100 mM KCL, 10% ethylene glycol, the non-varied substrate and 10 to 200 nM enzyme. Absorbance was monitored for one minute with a Spectramax 384 Plus plate reader (Molecular Devices). If the amino acid present at position 30 (29 if alanine is absent at position 2) was cysteine, absorbance was monitored at 235 nm, which directly detects cleavage of the sulfoester bond of acetyl CoA. If the amino acid present at position 30 (29 if alanine is absent at position 2) was isoleucine, 0.5 mM 5,5′-dithiobis-(2-nitrobenzoic acid), which reacts with the coenzyme A thiol generated in the enzyme catalyzed reaction, was included in the reaction mix and absorbance was monitored at 412 nm. Initial rates were processed by the Softmax software to obtain kinetic parameters, using the double-reciprocal transformation.
# The sequences with the new substitutions were derived through a combination of saturation mutagenesis of an already fit protein (SEQ ID NO:26) and an effective screening cascade as a means of identifying the improved genes (Examples 1-2). Regions in which novel changes are concentrated include helix H2a (positions 23 and 25-29) and the hairpin formed by strands B6 and B7 (positions 124-144). These two structures are components of the amino substrate binding site. Helix H3, the backbone to which the central beta sheet is anchored, is a region where 24% of the novel substitutions (17 out of 71) disclosed in Table 4 are concentrated into 11% of the positions (16 out of 146). None of those are near enough to the active site to influence substrate specificity directly. In three cases, multiple novel substitutions were discovered immediately or nearly adjacent to conserved amino acids shown previously to contribute to the catalytic mechanism (Siehl D L et. al., J Biol Chem, 282:11446, 2007). The catalytic amino acids for which this is the case are R21, R111, H138 and the nearby positions with multiple substitutions are 23, 112 and 137. The diverse amino acids at these positions may influence the orientation of the neighboring catalytic amino acids so as to selectively optimize catalysis with the preferred substrate, glyphosate.
# [3] = other: SEQ ID NO:4, pH 7.0, non-varied substrate saturating
# [4] = other: SEQ ID NO:10, pH 7.0, non-varied substrate saturating
# [5] = other: SEQ ID NO:8, pH 7.0, non-varied substrate saturating
# [6] = other: SEQ ID NO:5, pH 7.0, non-varied substrate saturating
# [7] = other: SEQ ID NO:2, pH 7.0, non-varied substrate saturating
substance,measurement,setting,value
GLYAT variant SEQ ID NO:4 (derived from SEQ ID NO:1 and 2) (Bacillus licheniformis DSM 13 = ATCC 14580; D131E/E14D/E65Q/E67K/E68K/G37R/G38S/I132T/I135A/I15L/I19V/I53V/I91V/K101R/K144R/K58Q/L105M/L26I/L36T/L97I/M75V/R47G/R92K/T33S/T89S/V114A/Y130F/Y31F/Y45F),Km,O=C(O)CNCP(=O)(O)O [1]; [3],1960 µM
same,kcat,O=C(O)CNCP(=O)(O)O [1]; [3],26.88 s⁻¹
same,kcat/Km,O=C(O)CNCP(=O)(O)O [1]; [3],13800 M⁻¹ s⁻¹
same,Km,N[C@@H](CC(=O)O)C(=O)O; [3],78300 µM
same,kcat,N[C@@H](CC(=O)O)C(=O)O; [3],2.27 s⁻¹
same,kcat/Km,N[C@@H](CC(=O)O)C(=O)O; [3],29 M⁻¹ s⁻¹
GLYAT variant SEQ ID NO:10 (derived from SEQ ID NO:1 and 2) (Bacillus licheniformis DSM 13 = ATCC 14580; A28V/D131E/E14D/E65Q/E67K/E68K/G37R/G38S/H61R/I132T/I135A/I15L/I19V/I53V/I91V/K101R/K144R/K58Q/L105M/L106I/L26I/L97I/M75V/R47G/R92K/T89S/V114A/Y130F/Y45F),Km,O=C(O)CNCP(=O)(O)O [1]; [4],370 µM
same,kcat,O=C(O)CNCP(=O)(O)O [1]; [4],11.6 s⁻¹
same,kcat/Km,O=C(O)CNCP(=O)(O)O [1]; [4],31680 M⁻¹ s⁻¹
same,Km,N[C@@H](CC(=O)O)C(=O)O; [4],89300 µM
same,kcat,N[C@@H](CC(=O)O)C(=O)O; [4],2.48 s⁻¹
same,kcat/Km,N[C@@H](CC(=O)O)C(=O)O; [4],28.2 M⁻¹ s⁻¹
GLYAT variant SEQ ID NO:8 (derived from SEQ ID NO:1 and 2) (Bacillus licheniformis DSM 13 = ATCC 14580; A28V/D131E/E119K/E14D/E65Q/E67K/E68K/E83D/G37R/G38S/I132T/I135A/I15L/I53V/I91V/K101R/K144R/K58Q/L105M/L106I/L26I/L36T/L97I/M75V/N8S/R47G/R92K/T89S/V114A/Y130F/Y45F),Km,O=C(O)CNCP(=O)(O)O [1]; [5],390 µM
same,kcat,O=C(O)CNCP(=O)(O)O [1]; [5],11.4 s⁻¹
same,kcat/Km,O=C(O)CNCP(=O)(O)O [1]; [5],29650 M⁻¹ s⁻¹
same,Km,N[C@@H](CC(=O)O)C(=O)O; [5],60000 µM
same,kcat,N[C@@H](CC(=O)O)C(=O)O; [5],1.42 s⁻¹
same,kcat/Km,N[C@@H](CC(=O)O)C(=O)O; [5],23.5 M⁻¹ s⁻¹
GLYAT variant SEQ ID NO:5 (derived from SEQ ID NO:1 and 2) (Bacillus licheniformis DSM 13 = ATCC 14580; A28V/D131E/E14D/E65Q/E67K/E68K/G37R/I132T/I135A/I15L/I19V/I53V/I91V/K101R/K144R/K58Q/L105M/L106I/L26I/L97I/M75V/R47G/R92K/T89S/V114A/Y130F/Y45F),Km,O=C(O)CNCP(=O)(O)O [1]; [6],230 µM
same,kcat,O=C(O)CNCP(=O)(O)O [1]; [6],16.98 s⁻¹
same,kcat/Km,O=C(O)CNCP(=O)(O)O [1]; [6],76470 M⁻¹ s⁻¹
same,Km,N[C@@H](CC(=O)O)C(=O)O; [6],79100 µM
same,kcat,N[C@@H](CC(=O)O)C(=O)O; [6],3.58 s⁻¹
same,kcat/Km,N[C@@H](CC(=O)O)C(=O)O; [6],45.3 M⁻¹ s⁻¹
"GLYAT (glyphosate-N-acetyltransferase), parent of saturation mutagenesis (already fit protein), SEQ ID NO:26 (derived from SEQ ID NO:1 and 2) (Bacillus licheniformis DSM 13 = ATCC 14580; A28V/C29I/D131E/E14D/E65Q/E67K/E68K/E83D/G37R/I132T/I135A/I15L/I19V/I53V/I91V/K101R/K144R/K58Q/L105M/L26I/L97I/M75V/R47G/R92K/T89S/V114A/Y130F/Y45F)",Km,O=C(O)CNCP(=O)(O)O [2],220 µM
same,kcat,O=C(O)CNCP(=O)(O)O [2],9.33 s⁻¹
same,kcat/Km,O=C(O)CNCP(=O)(O)O [2],41750 M⁻¹ s⁻¹
"GLYAT (glyphosate-N-acetyltransferase), parent, SEQ ID NO:2 (Bacillus licheniformis DSM 13 = ATCC 14580; A28V/D131E/E119K/E63D/E65Q/E67Q/E68K/E83D/E96Q/G37R/I132T/I135V/I15L/I2L/K101R/K144R/K58Q/L105M/L97I/R18K/T89S/V114A/Y130F/Y45F)",Km,O=C(O)CNCP(=O)(O)O [1]; [7],1380 µM
same,kcat,O=C(O)CNCP(=O)(O)O [1]; [7],4.52 s⁻¹
same,kcat/Km,O=C(O)CNCP(=O)(O)O [1]; [7],3270 M⁻¹ s⁻¹
same,Km,N[C@@H](CC(=O)O)C(=O)O; [7],47600 µM
same,kcat,N[C@@H](CC(=O)O)C(=O)O; [7],0.887 s⁻¹
same,kcat/Km,N[C@@H](CC(=O)O)C(=O)O; [7],18.7 M⁻¹ s⁻¹
